Measurements reported in patent publication US12551573B2, “Compositions and methods for the targeting of PCSK9” (Scribe Therapeutics Inc., priority 2022, dated 2026).
Read-outs that look alike come from different tables or passages of the source.

Tested on: HBEGF locus
Format: cell-based, human
Settings: high-throughput screen of dXR repression of the HBEGF gene
[1] = abundance of each domain in the library before and after diphtheria toxin selection, HEK293T cells
[2] = abundance of each domain in the library before vs after diphtheria toxin selection, listed domains met p-value <0.01 and log2(fold change) >2
[3] = change in abundance of each domain in the library before and after diphtheria toxin selection

Molecule	Log2 (fold change) [1]	Log2 (fold change) [2]	other results
DOMAIN_17801 (protein, listed as Pongo sp.) EPGAVSFADVAVYFCREEWGCLRPAQRALYRDVMRETYGHLSALGIGGNKPALISWVEEEAELWDPAAQDPEVAKCQTEAD	2.9733	–	–
DOMAIN_19563 (protein, listed as Papio anubis) AQMLVTFKDVAVTFTQEEWRQLDLTQRTLYREVMLETCGLLVSLGHRVPKPELVHLLEHGQELWTVKRGLSDPTCAGDRTQ	–	2.5522	–
DOMAIN_21583 (protein, listed as Sarcophilus harrisii) ALESVTFQDVAVNFTHEEWGHLKPAQKDLYREVMMENYQNFVSLGLPFSKPHVISQLEKGEAPWITEKASLVPRVSCQDFF	–	3.1529	–
DOMAIN_18979 (protein, listed as Pongo sp.) CYQDSVTFDDVAVDFTQEEWTLLDSTQRSLYSDVMLENYKNLATVGGQIIKPSLISWLEQEESKTVQGGVLQGRKTQWRGT	2.0034	–	–
DOMAIN_18923 (protein, listed as Callithrix jacchus) ASGTLTFDDVALYFSEQEWEILEKWQKQMYKQEMKTNYETLDSLGYAFSKPDLITWMEKGRMLLISDQGRLHKTKRTAGPP	2.2053	–	–
DOMAIN_22278 (protein, listed as Pteropus vampyrus) KPEDVSFAEVAVYFSLDEWGYLWPAQRALYRDVMRETYGHFGELGFPGPKPALISWMEQESEAWSPAAQDPEEGESVGGAV	–	3.3575	–
DOMAIN_18693 (protein, listed as Camelus dromedarius) GQESVSFKDVTVDFTWDEWLQLTGMQRTLYRDVMLENYSHLVSVGCCITKPEVIFKLEQGEEPWPREGELPGRRDPDRSQE	3.0179	–	–
DOMAIN_17534 (protein, Cercocebus atys) SQGSVSFKDVTVDFTQEEWQQLDPAQKALYRDVMLENYCHFVSVGFHMTKPDMIRKLEQGEELWTQRIFPSYSYLAEDGKT	2.9374	–	–
DOMAIN_19699 (protein, listed as Otolemur garnettii) LQGSVSFKDVTVDFTQEEWQQLDPAQKALYRDVMLENYCHFVSVGFHMTKPDMIRRLEQGEELWTERIFPGQSYLEEDGKA	–	2.8474	–
DOMAIN_17497 (protein, listed as Monodelphis domestica) AQEVVSFKDVAVDFTREEWRLLSPPQKELYKEVMLENARNLLSVGLPAPSEEVISYLEQREAPWILEQEGLRNCCSEGEIR	2.8088	–	–
DOMAIN_92 (protein, listed as Pan paniscus) FGNLLGVPWAQGNSALPEGLLSFKDISMEFTWDEWQLLDSTQKYLYRDVILENYHNLISVGYHGTKPDLIFKLEQGEDPWI	–	–	Log2 (fold change) [3]: 2.1475
DOMAIN_22311 (protein, listed as Monodelphis domestica) AQEVVSFKDVAVDFTREEWRLLSPPQKELYKEVMLENARNLLSVGLSAPPEDMFSSLEQREAPWMLEKDDLRSCCPEGKMR	–	2.9903	–
DOMAIN_17689 (protein, Cercocebus atys) MAFEDVAVYFSQEEWGLLDTAQRALYRRVMLENFTLVTSLGLSTSRPHVVIQLERGEEPWVPSGKDMTLARNTYRRLNAGE	3.6469	–	–
DOMAIN_17234 (protein, Delphinapterus leucas) PENGVTFEDIALYFSWEEWKLLDEAQRRLYHDVMLENFALISSLGVWSGEENVEASFEQSVSVVMSQVRTSKEPSSSQKTH	2.0152	–	–
DOMAIN_31643 (protein, listed as Micrurus lemniscatus) FREVSVYFSEEEWSWLDPDQKALYWEVMLENHRNMASLGDDGQENKDSYELLQGITARDTMETSAIEMEVERYKEKQSDDWNQESSSCTDDSV	–	–	Log2 (fold change) [3]: 3.8782
DOMAIN_17180 (protein, listed as Zalophus californianus) FQDSVTFEDVAVRFSSGEWQCLTRAQRHLYADVMLENYGNMISVGFAVPKPPLISHLEQGAEPCVQDLQDGGFLSCSFPVS	2.945	–	–
DOMAIN_143 (protein, listed as Pan paniscus) MAAMPLKAQYQEMVTFEDVAVHFTKTEWTGLSPAQRALYRSVMLENFGNLTALGYPVPKPALISLLEGGDMAWGLEAQDDP	–	–	Log2 (fold change) [3]: 3.63
DOMAIN_21277 (protein, listed as Aotus trivirgatus) PQDLMTFDDVAVEFTQWEWGQLNPAQKDLYREVMLENFRNLTLLGLLVSKPYMICQLEEGGEPFMVNTEISVGAHSDWERR	–	2.7115	–

Molecule	Log2 (fold change) [1]	Log2 (fold change) [2]	other results
DOMAIN_17548 (protein, listed as Neomonachus schauinslandi) VQGSMSFEDVIVEFTQDEWQYMSPAQRILYRDVMLENYSHLISVGYCTTKPEMIFKLEQGEEPWSLEEEFLNQRYPGYFSV	2.8002	–	–
DOMAIN_20025 (protein, listed as Carlito syrichta) LQGSVSFKDVTVDFTQEEWHQLNPAQKALYRDVMLENYCHFISVGFHMTKPDMIRKLEQGEELWTERIFSRQSHLEEDGKA	–	2.2451	–
DOMAIN_18646 (protein, listed as Monodelphis domestica) VKEVVTLQDVAVDFTWEEWRLLSPPQKELYREVMLENAQNLLSVGLPAPLEDVLSYLEQRKGPWMLEQKRLRSCCPGEIRL	2.4678	–	–
DOMAIN_17474 (protein, listed as Monodelphis domestica) QVPVTFEDLAVRFSAEEWHLLEEWQREFHRDVMRENYEMLVSLGTAQLLPLSAFLSLTEPQEDMGDNGCSDGEWERPGGGL	2.683	–	–
DOMAIN_21095 (protein, listed as Trichechus manatus) LKASVSFKDVAVELTQEEWQHMGPAQRTLYRDVMLENYSHLVSVGYCIFKPEVIFKLEQGEQPWFLEQEFSNQSYPEDYNI	–	2.5003	–
DOMAIN_22375 (protein, listed as Tursiops truncatus) PQGCAISEDVFVYFSREEWVLLDEDQRLLYRDVMLENFALLASLGITSSRSYLVTQLEQGEEPWMPAQVDMTAATEKEAQK	–	2.5484	–
DOMAIN_17264 (protein, Vicugna pacos) CEVSVSFEDVTVDFSREEWQHLDPAQRRLYRDVTLENYSHLCSVGYQVPKPEVIFKLEQGEGPWTLEEETPHQSCSDEDMG	3.0866	–	–
DOMAIN_18670 (protein, listed as Neomonachus schauinslandi) LQVSVSFEDVTVDFSREEWQHLDPAQRRLYRDVTLENYSHLHSVGYQVPKPEVIFKLEQGEGPWTLEGETPHQGCSDEAIG	3.1792	–	–
DOMAIN_21909 (protein, listed as Suricata suricatta) AHHLVMFRDVAVDFSQDEWECLNSYQRNLYRDVILENYSNLVSVAGCSISKPDVITLLEQGREPWMVVRDERRRRTLDLES	–	3.2301	–
DOMAIN_20336 (protein, listed as Panthera pardus) SQGTVSFKDVAVNFTQEEWQYLDLPQRDLYKDVMLENYTNLISVGYQTTKPSVIHKLEQGEEPWMVEREIPNWSYAEETWQ	–	2.3293	–
DOMAIN_18726 (protein, listed as Myotis davidii) PNALVTFQDVFVDFSPEELASLSAAQRRLHREVTLENYRNLVSLGYQFPRPDIITQLEEEESSAMEEDSNTKTGPDWETGP	2.9362	–	–
DOMAIN_22483 (protein, listed as Aotus trivirgatus) TQESLTLEDVAVEFSWEEWQLLDTAQKDLYRDVMVENYNHLVSLGYQTSKPDALSKLAHGQEPWMTDAKIQNKNCPGIRKV	–	2.1702	–
DOMAIN_18459 (protein, listed as Monodelphis domestica) GQEEVAFKDVAVDFTREEWRLLSPPQKELYKEVMLENIRNLLSVGLPAPPEDMISYLEQREAPWMLEQEGLRSYSPGEEIR	3.1352	–	–
DOMAIN_22454 (protein, listed as Monodelphis domestica) AQEVVTFKDVAVDFTREEWCLLSPPQKELYKEVMLENAQNLLSVGLPGPPEDVISYLKQRKDPWMLEQEGLRSCCPEGEIR	–	2.6042	–
DOMAIN_17775 (protein, listed as Camelus dromedarius) MPQGSVSFKDVTVDFTQEEWQQLDSAQKALYRDVMLENYCHFVSVGFHMTKPDMIHKLEQGKELWTTGRIFPSRSYLGESV	2.6595	–	–
DOMAIN_19388 (protein, listed as Physeter macrocephalus) MTFEDVAVEFTRWEWGQLDPTQKDVYREVMLENFKNLASLGFPMSKPYVICRLEEGEEPCILEREISTGAPADWERRRQAK	3.2831	–	–
DOMAIN_22459 (protein, listed as Monodelphis domestica) SQGPVKFEDVAIYLWKEEWELMDSTQKRLYRQVMLETYENVLSVGTPHDKPAMIVHLEQGETAWSPALQRPGKEKGRLHGH	–	2.9261	–
